T1: human BTLA (human, UniProt Q7Z6A9 31-289)
T1 construct: also called hBTLA; HEK293.hBTLA
T1 sequence: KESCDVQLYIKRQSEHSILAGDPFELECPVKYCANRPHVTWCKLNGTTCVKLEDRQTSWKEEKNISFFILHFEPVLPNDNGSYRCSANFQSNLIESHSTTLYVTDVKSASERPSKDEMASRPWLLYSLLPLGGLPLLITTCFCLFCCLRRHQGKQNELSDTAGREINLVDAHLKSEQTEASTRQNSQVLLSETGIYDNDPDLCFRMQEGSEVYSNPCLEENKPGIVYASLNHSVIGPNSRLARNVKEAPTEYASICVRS


Molecular target: T1, human BTLA
Assay: flow cytometry, HEK293 cells overexpressing human BTLA
Description: HEK293 cells overexpressing human BTLA and Expi293 cells overexpressing cynomolus BTLA were incubated with different concentrations of humanized anti-BTLA antibodies. Anti-BTLA antibody binding to target cells were quantified with an AF647-conjugated anti-human IgG Fc secondary antibody by flow cytometry.

binding result	Binder
binds	HFB6-4hz1-hG1 (antibody, V domains shown, Humanized variant of HFB6-4, human IgG1 (hG1); Only VH and VL are tied to the name) VH: QVQLVQSGAEVKKPGSSVKVSCKTSGFNIKDTYIHWVRQAPGQGLEWIGRNDPANGNTKYAQKFQGRATITADESTSTAYMELSSLRSEDTAVYYCASYEGYYERFGYWGQGTLVTVSS VL: DIQMTQSPSSLSASVGDRVTITCRSSQSLLDRDGKSYLNWLQQKPGKAPKRLIYLVSKLDSGVPSRFSGSGSGTDFTLTISSLQPEDFATYYCWQDTHFPYTFGQGTKLEIK
binds	HFB6-4hz7-hG1 (antibody, human IgG1, V domains shown, Humanized variant of HFB6-4, human IgG1 (hG1)) VH: QVQLVQSGAEVKKPGSSVKVSCKTSGFNIKDTYIHWVRQAPGQGLEWIGRNDPANGNTKYAQKFQGRATITADESTSTAYMELSSLRSEDTAVYYCASYEGYYERFGYWGQGTLVTVSS VL: DVVMTQSPLSLPVTLGQPASISCRSSQSLLDRDGKTYLNWLQQRPGQSPRRLIYLVSKRDSGVPDRFSGSGSGTDFTLKISRVEAEDVGVYYCWQDTHFPYTFGQGTKLEIK
binds	HFB6-4hz6-hG1 (antibody, human IgG1, V domains shown, Humanized variant of HFB6-4, human IgG1 (hG1)) VH: EVQLVQSGAEVKKPGESLKISCKTSGFNIKDTYIHWVRQMPGKGLEWIGRNDPANGNTKYSPSFQGQVTISADKSISTAYLQLSSLKASDTAMYYCASYEGYYERFGYWGQGTLVTVSS VL: DIQMTQSPSSLSASVGDRVTITCRSSQSLLDRDGKSYLNWLQQKPGKAPKRLIYLVSKLDSGVPSRFSGSGSGTDFTLTISSLQPEDFATYYCWQDTHFPYTFGQGTKLEIK
binds	HFB6-4hz3-hG1 (antibody, human IgG1, V domains shown, Humanized variant of HFB6-4, human IgG1 (hG1)) VH: EVQLVESGGGLVQPGRSLRLSCTTSGFNIKDTYIHWFRQAPGKGLEWVGRNDPANGNTKYTASFKGRATISADGSKSIAYLQMNSLKTEDTAVYYCASYEGYYERFGYWGQGTLVTVSS VL: DIQMTQSPSSLSASVGDRVTITCRSSQSLLDRDGKSYLNWLQQKPGKAPKRLIYLVSKLDSGVPSRFSGSGSGTDFTLTISSLQPEDFATYYCWQDTHFPYTFGQGTKLEIK
binds	HFB6-4hz5-hG1 (antibody, human IgG1, V domains shown, Humanized variant of HFB6-4, human IgG1 (hG1)) VH: QVQLQESGPGLVKPSGTLSLTCAVSGFNIKDTYIHWVRQPPGKGLEWIGRNDPANGNTKYNPSFKSRATISADKSKNQASLKLSSVTAADTAVYYCASYEGYYERFGYWGQGTLVTVSS VL: DIQMTQSPSSLSASVGDRVTITCRSSQSLLDRDGKSYLNWLQQKPGKAPKRLIYLVSKLDSGVPSRFSGSGSGTDFTLTISSLQPEDFATYYCWQDTHFPYTFGQGTKLEIK
binds	HFB6-4hz8-hG1 (antibody, human IgG1, V domains shown, Humanized variant of HFB6-4, human IgG1 (hG1)) VH: QVQLVQSGAEVKKPGASVKVSCKTSGFNIKDTYIHWVRQAPGQGLEWIGRNDPANGNTKYAQKFQGRVTMTADTSTSTVYMELSSLRSEDTAVYYCASYEGYYERFGYWGQGTLVTVSS VL: DVVMTQSPLSLPVTLGQPASISCRSSQSLLDRDGKTYLNWLQQRPGQSPRRLIYLVSKRDSGVPDRFSGSGSGTDFTLKISRVEAEDVGVYYCWQDTHFPYTFGQGTKLEIK
binds	HFB6-4hz4-hG1 (antibody, human IgG1, V domains shown, Humanized variant of HFB6-4, human IgG1 (hG1)) VH: EVQLVESGGGLVQPGGSLKLSCATSGFNIKDTYIHWVRQASGKGLEWIGRNDPANGNTKYAASFKGRATISADDSKNTAYLQLNSLKTEDTAVYYCASYEGYYERFGYWGQGTLVTVSS VL: DIQMTQSPSSLSASVGDRVTITCRSSQSLLDRDGKSYLNWLQQKPGKAPKRLIYLVSKLDSGVPSRFSGSGSGTDFTLTISSLQPEDFATYYCWQDTHFPYTFGQGTKLEIK
binds	HFB6-4hz2-hG1 (antibody, human IgG1, V domains shown, Humanized variant of HFB6-4, human IgG1 (hG1)) VH: QVQLVQSGAEVKKPGASVKVSCKTSGFNIKDTYIHWVRQAPGQGLEWIGRNDPANGNTKYAQKFQGRVTMTADTSTSTVYMELSSLRSEDTAVYYCASYEGYYERFGYWGQGTLVTVSS VL: DIQMTQSPSSLSASVGDRVTITCRSSQSLLDRDGKSYLNWLQQKPGKAPKRLIYLVSKLDSGVPSRFSGSGSGTDFTLTISSLQPEDFATYYCWQDTHFPYTFGQGTKLEIK
binds	HFB6-5hz19-hG1 (antibody, human IgG1, V domains shown, Humanized variant of HFB6-5, human IgG1 (hG1)) VH: QVQLVQSGAEVKKPGSSVKVSCKASGVNIKDTYMYWVRQAPGQGLEWIGRIDPANGYARYAQKFQGRATITADESTSTAYMELSSLRSEDTAVYYCAVYDGYYESFDVWGQGTLVTVSS VL: DIVMTQSPDSLAVSLGERATINCKSSQSLLDSDGKTYLNWLQQKPGQSPKRLIYLVSKLDSGVPDRFSGSGSGTDFTLTISSVQAEDLAVYYCWQGTLFPRTFGQGTKLEIK
binds	HFB6-5hz23-hG1 (antibody, human IgG1, V domains shown, Humanized variant of HFB6-5, human IgG1 (hG1)) VH: QVQLQESGPGLVKPSGTLSLTCAASGVNIKDTYMYWVRQPPGKGLEWIGRIDPANGYTRYNPSFKSRATISADKSKNQASLKLSSVTAADTAVYYCAVYDGYYESFDVWGQGTLVTVSS VL: DIVMTQSPDSLAVSLGERATINCKSSQSLLDSDGKTYLNWLQQKPGQSPKRLIYLVSKLDSGVPDRFSGSGSGTDFTLTISSVQAEDLAVYYCWQGTLFPRTFGQGTKLEIK
binds	HFB6-5hz24-hG1 (antibody, human IgG1, V domains shown, Humanized variant of HFB6-5, human IgG1 (hG1)) VH: EVQLVQSGAEVKKPGESLKISCKGSGVNIKDTYMYWVRQMPGKGLEWIGRIDPANGYTRYSPSFQGQVTISADKSISTAYLQLSSLKASDTAMYYCAVYDGYYESFDVWGQGTLVTVSS VL: DIVMTQSPDSLAVSLGERATINCKSSQSLLDSDGKTYLNWLQQKPGQSPKRLIYLVSKLDSGVPDRFSGSGSGTDFTLTISSVQAEDLAVYYCWQGTLFPRTFGQGTKLEIK
binds	HFB6-5hz20-hG1 (antibody, human IgG1, V domains shown, Humanized variant of HFB6-5, human IgG1 (hG1)) VH: QVQLVQSGAEVKKPGASVKVSCKASGVNIKDTYMYWVRQAPGQGLEWIGRIDPANGYTRYAQKFQGRATITADTSTSTVYMELSSLRSEDTAVYYCAVYDGYYESFDVWGQGTLVTVSS VL: DIVMTQSPDSLAVSLGERATINCKSSQSLLDSDGKTYLNWLQQKPGQSPKRLIYLVSKLDSGVPDRFSGSGSGTDFTLTISSVQAEDLAVYYCWQGTLFPRTFGQGTKLEIK
binds	HFB6-5hz16-hG1 (antibody, human IgG1, V domains shown, Humanized variant of HFB6-5, human IgG1 (hG1)) VH: EVQLVESGGGLVQPGGSLKLSCAASGVNIKDTYMYWVRQASGKGLEWIGRIDPANGYTRYAASFKGRATISADDSKNTAYLQLNSLKTEDTAVYYCAVYDGYYESFDVWGQGTLVTVSS VL: EIVLTQSPGTLSVSPGERATISCRSSQSLLDSDGKTYLNWLQQKPGQAPRRLIYLVSKRDTGVPDRFSGSGSGTDFTLTISRVEPEDFAVYYCWQGTLFPRTFGQGTKLEIK
binds	HFB6-5hz21-hG1 (antibody, human IgG1, V domains shown, Humanized variant of HFB6-5, human IgG1 (hG1)) VH: EVQLVESGGGLVQPGRSLRLSCTASGVNIKDTYMYWVRQAPGKGLEWVGRIDPANGYTRYTASFKGRATISADGSKSIAYLQMNSLKTEDTAVYYCAVYDGYYESFDVWGQGTLVTVSS VL: DIVMTQSPDSLAVSLGERATINCKSSQSLLDSDGKTYLNWLQQKPGQSPKRLIYLVSKLDSGVPDRFSGSGSGTDFTLTISSVQAEDLAVYYCWQGTLFPRTFGQGTKLEIK
binds	HFB6-5hz17-hG1 (antibody, human IgG1, V domains shown, Humanized variant of HFB6-5, human IgG1 (hG1)) VH: QVQLQESGPGLVKPSGTLSLTCAASGVNIKDTYMYWVRQPPGKGLEWIGRIDPANGYTRYNPSFKSRATISADKSKNQASLKLSSVTAADTAVYYCAVYDGYYESFDVWGQGTLVTVSS VL: EIVLTQSPGTLSVSPGERATISCRSSQSLLDSDGKTYLNWLQQKPGQAPRRLIYLVSKRDTGVPDRFSGSGSGTDFTLTISRVEPEDFAVYYCWQGTLFPRTFGQGTKLEIK
binds	HFB6-5hz18-hG1 (antibody, human IgG1, V domains shown, Humanized variant of HFB6-5, human IgG1 (hG1)) VH: EVQLVQSGAEVKKPGESLKISCKGSGVNIKDTYMYWVRQMPGKGLEWIGRIDPANGYTRYSPSFQGQVTISADKSISTAYLQLSSLKASDTAMYYCAVYDGYYESFDVWGQGTLVTVSS VL: EIVLTQSPGTLSVSPGERATISCRSSQSLLDSDGKTYLNWLQQKPGQAPRRLIYLVSKRDTGVPDRFSGSGSGTDFTLTISRVEPEDFAVYYCWQGTLFPRTFGQGTKLEIK
binds	HFB6-5hz22-hG1 (antibody, human IgG1, V domains shown, Humanized variant of HFB6-5, human IgG1 (hG1)) VH: EVQLVESGGGLVQPGGSLKLSCAASGVNIKDTYMYWVRQASGKGLEWIGRIDPANGYTRYAASFKGRATISADDSKNTAYLQLNSLKTEDTAVYYCAVYDGYYESFDVWGQGTLVTVSS VL: DIVMTQSPDSLAVSLGERATINCKSSQSLLDSDGKTYLNWLQQKPGQSPKRLIYLVSKLDSGVPDRFSGSGSGTDFTLTISSVQAEDLAVYYCWQGTLFPRTFGQGTKLEIK
binds	HFB6-4hz9-hG1 (antibody, human IgG1, V domains shown, Humanized variant of HFB6-4, human IgG1 (hG1)) VH: EVQLVESGGGLVQPGRSLRLSCTTSGFNIKDTYIHWFRQAPGKGLEWVGRNDPANGNTKYTASFKGRATISADGSKSIAYLQMNSLKTEDTAVYYCASYEGYYERFGYWGQGTLVTVSS VL: DVVMTQSPLSLPVTLGQPASISCRSSQSLLDRDGKTYLNWLQQRPGQSPRRLIYLVSKRDSGVPDRFSGSGSGTDFTLKISRVEAEDVGVYYCWQDTHFPYTFGQGTKLEIK
binds	HFB6-4hz10-hG1 (antibody, human IgG1, V domains shown, Humanized variant of HFB6-4, human IgG1 (hG1)) VH: EVQLVESGGGLVQPGGSLKLSCATSGFNIKDTYIHWVRQASGKGLEWIGRNDPANGNTKYAASFKGRATISADDSKNTAYLQLNSLKTEDTAVYYCASYEGYYERFGYWGQGTLVTVSS VL: DVVMTQSPLSLPVTLGQPASISCRSSQSLLDRDGKTYLNWLQQRPGQSPRRLIYLVSKRDSGVPDRFSGSGSGTDFTLKISRVEAEDVGVYYCWQDTHFPYTFGQGTKLEIK
binds	HFB6-5-hG1 (human-mouse chimeric monoclonal antibody) (antibody, human IgG1, kappa, V domains shown, also called HFB-5; HFB6-5 parental antibody) VH: EVQLQQSGAELVKPGASVKLSCTASGVNIKDTYMYWVKQRPEQGLEWIGRIDPANGYTRYDPKFQGKATITADTSSNTAHLQLSSLTSEDAAVYYCAVYDGYYESFDVWGAGTTVTVSS VL: not shown
